The record followed here is patent publication US20040202655A1 (published 2004).

“And” between values parts separate entries of the source, which are not always exact repeats. Identical values can stand only once.

The term IC50 denotes the concentration at which inhibition is half-maximal. Low values mean greater potency in that assay, high ones weaker potency in that assay. What is called Kd is the free concentration of one partner at which half of the binding sites on the other are occupied at equilibrium, for simple one-to-one binding. Low readings indicate tighter binding, high ones weaker binding.

For assay [1], the target named is T1, human IGF-I receptor on cells (NIH-3T3 fibroblasts expressing the human IGF-IR; DU145 cells) (human, UniProt P08069 31-1367). Description: cell-based or functional assay.
The target of assay [2] is T1, human IGF-I receptor on cells (NIH-3T3 …). Kind of assay: cell-based or functional assay. This is another data set of the same source.
Assay [3] shares this target. Kind of assay: competition with 125I-IGF-I, NIH-3T3 cells expressing human IGF-1R, 4 C. The protocol: (§1) NIH-3T3 fibroblasts expressing the human IGF-IR, or NIH-3T3 non-transfected fibroblasts were plated at 6×10⁴ cells per well in 0.5 ml of DMEM (Gibco, #11960-044) supplemented with 10% heat-inactivated fetal bovine serum (Gibco, #16140-071), 2 mM L-glutamine (Gibco, #25030-081) and 50 U/ml penicillin-streptomycin (Gibco, #15070-063). The NIH-3T3 cells were used as a control for non-specific cell binding. The plates were incubated at 37° C./5% CO₂ for 24 hours to allow cells to attach and become 80-90% confluent. The overlying media was then replaced with 0.5 ml per well of starvation media consisting of DMEM, 20 mM Hepes (Gibco, #15630-080), 2 mM L-glutamine and 0.1% bovine serum albumin (Equitech-Bio, protease-free, Kerrville, Tex.) and the plates were incubated at 37° C., 5% CO₂ overnight. All subsequent binding steps were conducted at 4° C. Test antibodies were diluted in ice-cold starvation media to the desired final concentration and 100 μl added per well. All samples were performed in duplicate. […] Cell monolayers were washed three times with ice-cold PBS (Gibco, #14040-117) and cells and associated radioactivity were released by adding 0.5ml 2% sodium dodecyl sulfate/0.2N NaOH to each well and heating the plates at 60° C. for 15 minutes. Lysate associated radioactivity was quantitated by gamma scintillation spectrometry. Alternatively, the same described experiment was performed with preincubation with the test antibodies at 37° C. for 10 minutes, followed by 10 minutes incubation at 37° C. after addition of 400 pM of the iodinated radioligand.

For assay [4] the target is unchanged. Kind of assay: competition with 125I-IGF-I, NIH-3T3 cells expressing human IGF-1R, 37 C. On the procedure:
as §1, with “Alternatively, the same described experiment was performed with preincubation with the test antibodies at 37° C. for 10 minutes, followed by 10 minutes incubation at 37° C. after addition of 400 pM of the iodinated radioligand.” left out

Assay [5] has the same target. Description: competition with 125I-IGF-II, NIH-3T3 cells expressing human IGF-1R, 4 C. On the procedure: as §1
Assay [6] has the same target. Description: competition with 125I-IGF-II, NIH-3T3 cells expressing human IGF-1R, 37 C.
Assay [7] shares this target. Kind of assay: saturation binding of 125I-labelled IgG to NIH-3T3 cells expressing human IGF-1R, on ice; unit inferred. The protocol: The mixtures were in incubated on ice for 70 min. After the incubation the tubes were centrifuged at 1000 rpm for 1 min and the supernatant fractions were removed by aspiration. The cell pellets were washed with 50 μl of ice-cold Hanks' Balanced Salt Solution containing 0.2% BSA and 20 mM Hepes and centrifuged at 1000 rpm for […] and the supernatant fractions were removed by aspiration. The resulting cell pellets were counted in Perkin Elmer Cobra Quantum gamma counter. […] The specific binding was obtained by subtracting the non-specific binding counts from the total binding counts in corresponding pairs.

B1: PINT-11A4 IgG (antibody, V domains shown)
VH: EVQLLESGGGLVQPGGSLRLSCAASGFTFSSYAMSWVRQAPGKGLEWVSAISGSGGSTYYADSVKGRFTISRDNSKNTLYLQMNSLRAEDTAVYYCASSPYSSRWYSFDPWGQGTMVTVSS
VL: LSYELTQPPSVSVSPGQTATITCSGDDLGNKYVSWYQQKPGQSPVLVIYQDTKRPSGIPERFSGSNSGNIATLTISGTQAVDEADYYCQVWDTGTVVFGGGTKLTVLG
As for B1, in assay [1], the “IC50 (nM), IGF-1 dependent proliferation of NIH-3T3/hIGF-1R cells (BrdU ELISA)” value is 3.4 nM and 2.6 nM. Moreover, in assay [2], the “Antagonist Assay IC50 (nM), IGF-I-induced IGF-1R tyrosine phosphorylation (ELISA)” value was 2.4 nM and 3.3 nM. Besides, the IC50 in assay [3] is over 100 nM; in assay [4] it was 1.9 nM; in assay [5], over 75 nM; in assay [6], 3 nM and 2.6 nM. Also, binding in assay [7] was put at a Kd of 2.24 nM.
